Data from PMC6706441, “B1 oligomerization regulates PML nuclear body biogenesis and leukemogenesis” (Nature Communications, 2019).

B1: full-length PML isoform IV, wild type (mammalian two-hybrid fusions) [human (by the printed UniProt code P29590-5)] / full-length PML isoform IV, wild type (mammalian two-hybrid fusions) [human (by the printed UniProt code … (parent)
chain 1: MEPAPARSPRPQQDPARPQEPTMPPPETPSEGRQPSPSPSPTERAPASEEEFQFLRCQQCQAEAKCPKLLPCLHTLCSGCLEASGMQCPICQAPWPLGADTPALDNVFFESLQRRLSVYRQIVDAQAVCTRCKESADFWCFECEQLLCAKCFEAHQWFLKHEARPLAELRNQSVREFLDGTRKTNNIFCSNPNHRTPTLTSIYCRGCSKPLCCSCALLDSSHSELKCDISAEIQQRQEELDAMTQALQEQDSAFGAVHAQMHAAVGQLGRARAETEELIRERVRQVVAHVRAQERELLEAVDARYQRDYEEMASRLGRLDAVLQRIRTGSALVQRMKCYASDQEVLDMHGFLRQALCRLRQEEPQSLQAAVRTDGFDEFKVRLQDLSSCITQGKDAAVSKKASPEAASTPRDPIDVDLPEEAERVKAQVQALGLAEAQPMAVVQSVPGAHPVPVYAFSIKGPSYGEDVSNTTTAQKRKCSQTQCPRKVIKMESEEGKEARLARSSPEQPRPSTSKAVSPPHLDGPPSPRSPVIGSEVFLPNSNHVASGAGEAEERVVVISSSEDSDAENSSSRELDDSSSESSDLQLEGPSTLRVLDENLADPQAEDRPLVFFDLKIDNESGFSWGYPHPFLI
chain 2: B1 chain 1

Variants of: B1
Assay: mammalian two-hybrid assay
Conditions: with full-length PML isoform IV, parent: 38, read off a plot, scale: fold change

Compared with chain 1 W157E, chain 1 I122P V123P is higher in response: 3.2 for the first, 21 for the second.

Variant chain 1 F158E has a response of 2.8.
